The record followed here is PMC13598245 (2026).

Where two headings read alike, the source gives them in different places. Square brackets hold non-standard residues; d marks the D form. Ends that are not written are not given here. * marks the point of attachment. FITC = O=C1OC2(c3ccc(O)cc3Oc3cc(O)ccc32)c2ccc(NC(=S)*)cc21; pS = N[C@@H](COP(=O)(O)O)C(=O)O

Common to all, as to assay: FP
For assay [1], the target named is T1, 14-3-3η (purified, recombinant) (UniProt Q04917 1-246).
T1 chain: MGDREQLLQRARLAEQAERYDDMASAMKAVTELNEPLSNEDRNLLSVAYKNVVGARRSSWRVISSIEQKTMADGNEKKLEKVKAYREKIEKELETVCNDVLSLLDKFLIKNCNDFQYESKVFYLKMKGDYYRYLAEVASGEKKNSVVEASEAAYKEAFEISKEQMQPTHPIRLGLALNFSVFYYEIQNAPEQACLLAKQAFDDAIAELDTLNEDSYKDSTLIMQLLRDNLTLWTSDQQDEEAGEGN

Assay [2] has as its target T2, 14-3-3θ (purified, recombinant) (UniProt P27348 1-245).
T2 chain: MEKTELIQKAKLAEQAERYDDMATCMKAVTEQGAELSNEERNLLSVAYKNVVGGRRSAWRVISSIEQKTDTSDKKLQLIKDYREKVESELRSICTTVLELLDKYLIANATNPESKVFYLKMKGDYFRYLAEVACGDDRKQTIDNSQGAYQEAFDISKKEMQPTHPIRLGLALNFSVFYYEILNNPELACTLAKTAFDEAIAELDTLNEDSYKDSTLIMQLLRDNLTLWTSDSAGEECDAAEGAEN

Assay [3] addresses T1, 14-3-3η (purified, recombinant).
In assay [4] the target is T2, 14-3-3θ (purified, recombinant).

Regarding {FITC}-DGRRW[pS]LASLPSS [MAST1^85-97 p-S90], the equilibrium dissociation constant (Kd) in assay [1] was found to be 12.3 µM; in assay [2], 23.7 µM.

On to {FITC}-RPRSR[pS]LSPGRSP [MAST1^156-168 p-S161], for which the Kd in assay [1] was found to be 3.6 µM; in assay [2], 10.7 µM.

{FITC}-RSRTP[pS]LPTPPTR [Tau^209-221 p-S214]: the values for the dissociation constant Kd in assay [3] and in assay [4] were 21 µM and 90.9 µM, respectively.
